According to patent US20060024313A1, “Agents that disrupt dimer formation in DPP-IV family of prolyl dipeptidases” (priority 2004, published 2006):
Several values for one entry are separate records, joined by “and”; a condition that tells them apart may be missing. Equal values may be shown once.

Assays:
DPP-IV [1] = test: Dilution experiment (specific activity after two-fold dilutions); assay type: biochemical, human; conditions: 200 nM to 1.6 nM enzyme, 16 hours at 25° C., 10 uM H-Gly-Pro-pNA
Procedure: Enzyme concentrations ranging from 200 nM to 1.6 nM were used in the dilution experiments. The experiments were carried out with consecutive two-fold dilutions in PBS containing 0.1% BSA and 1 mM DTT (dithiothreitol). The solution after dilution was incubated at 25° C. for 16 hours to ensure attainment of dimer-monomer equilibrium. The reaction was initiated by adding the substrate H-Gly-Pro-pNA at a final concentration of 10 uM for both wild type DPP-IV and H750A proteins. The initial rate of the reaction was recorded and converted to specific activity.

[2] = Size exclusion chromatography (gel filtration, Superdex 200); assay type: physicochemical; conditions: gel filtration experiments; PBS buffer
Procedure: Chemical crosslinking in intact cells was conducted as described (24). Size exclusion chromatography was conducted at 4° C. Purified proteins (0.5 ml at a concentration of 5 uM) were applied to a Superdex 200 10/30 column (10×300-310 mm) pre-equilibrated with PBS. The sample was eluted with the same buffer at 0.3 ml/min and 0.25 ml fractions were collected. The Superdex 200 10/30 column was calibrated with the Stokes Radii of ferritin (6.1 nm), catalase (5.22 nm), aldolase (4.81 nm), albumin (3.55 nm), ovalbumin (3.05 nm) and chymotrypsinogen A (2.09 nm) from Amersham-Pharmacia.

[3] = Analytical ultracentrifugation (AUC): sedimentation velocity and equilibrium; assay type: physicochemical
Procedure: Buffer was changed using an Amicon device and DPP-IV proteins were allowed to equilibrate for at least four hours or longer as indicated in the text at 25° C. after buffer changes. The sedimentation coefficients (S) of the enzyme were estimated by a Beckman-Coulter XL-A analytical ultracentrifuge with an An60Ti rotor as described (25). Sedimentation velocity analysis was performed at 40,000 rpm at 25° C. with standard double sector aluminum centerpieces. The UV absorption of the cells was scanned every 5 min for 4 hours. Sedimentation equilibrium was performed at 20° C. with six-channel open centerpieces and then centrifuged at 12,000 rpm for 12 hours. The data from both sedimentation velocity and sedimentation experiments were analyzed with the SedFit version 8.7 program to obtain molecular weights and sedimentation coefficients (25). Sednterp version 1.07 program is used to obtain solvent density, viscosity, Stokes' radius (Rs) and anhydrous frictional ratio (f/fo).

DPP-IV [4] = test: Kinetic constant measurements with chromogenic substrate H-Gly-Pro-pNA; assay type: biochemical, human; conditions: for Km / kcat: substrate H-Gly-Pro-pNA
Procedure: To measure the kinetic parameters, the chromogenic substrate H-Gly-Pro-pNA was utilized to initiate the reaction, which was monitored at OD 405 nm as a function of time (21). […] The initial rate was measured with less than 10% substrate depletion for the first 10 to 300 seconds. The steady-state parameters, kcat and Km, were determined from initial velocity measurements at 0.5 to 5 Km of the substrate concentrations. Lineweaver-Burk plots were analyzed using non-linear regression of the Michaelis-Menten equation. Correlation coefficients better than 0.99 were obtained throughout.

B1: H750A: DPP-IV mutant, H750 mutated to Ala; mixture of dimer and monomer (protein)
chain: SRKTYTLTDYLKNTYRLKLYSLRWISDHEYLYKQENNILVFNAEYGNSSVFLENSTFDEFGHSINDYSISPDGQFILLEYNYVKQWRHSYTASYDIYDLNKRQLITEERIPNNTQWVTWSPVGHKLAYVWNNDIYVKIEPNLPSYRITWTGKEDIIYNGITDWVYEEEVFSAYSALWWSPNGTFLAYAQFNDTEVPLIEYSFYSDESLQYPKTVRVPYPKAGAVNPTVKFFVVNTDSLSSVTNATSIQITAPASMLIGDHYLCDVTWATQERISLQWLRRIQNYSVMDICDYDESSGRWNCLVARQHIEMSTTGWVGRFRPSEPHFTLDGNSFYKIISNEEGYRHICYFQIDKKDCTFITKGTWEVIGIEALTSDYLYYISNEYKGMPGGRNLYKIQLSDYTKVTCLSCELNPERCQYYSVSFSKEAKYYQLRCSGPGLPLYTLHSSVNDKGLRVLEDNSALDKMLQNVQMPSKKLDFIILNETKFWYQMILPPHFDKSKKYPLLLDVYAGPCSQKADTVFRLNWATYLASTENIIVASFDGRGSGYQGDKIMHAINRRLGTFEVEDQIEAARQFSKMGFVDNKRIAIWGWSYGGYVTSMVLGSGSGVFKCGIAVAPVSRWEYYDSVYTERYMGLPTPEDNLDHYRNSTVMSRAENFKQVEYLLIHGTADDNVHFQQSAQISKALVDVGVDFQAMWYTDEDHGIASSTAHQAIYTHMSHFIKQCFSLP
DPP-IV [1]
  specific activity on dilution: constant
[2]
  Stokes' radius (Rs): 5.7 nm and 4.6 nm
[3]; High salt buffer (0.5 M sodium sulfate)
  quaternary structure (subunit composition) by sedimentation velocity: mixture of dimer-monomer
[3]; PBS buffer where stated
  quaternary structure (monomer/dimer) by AUC: mixture of DPP-IV dimer and monomer
[3]; room temperature for up to 48 hours, after gel filtration
  subunit composition of separated dimer and monomer after incubation: maintain their subunit compositions
DPP-IV [4]; High salt buffer
  Km: 125 µM
  kcat: 16 s⁻¹
DPP-IV [4]; PBS buffer
  Km: 77 µM
  kcat: 31 s⁻¹
DPP-IV [4]; compared with wild type rDPP-IV
  decrease in kcat: about 3 fold
DPP-IV [4]; low salt buffer compared to PBS buffer (data not shown)
  AUC analysis or catalytic activities in low salt buffer: no differences
